Test results: the RNAGym collection of RNA variant scans (doi:10.1093/nar/gkz1192)

B1: CPEB3 Ribozyme (parent)
chain: UAACAGGGGGCCACAGCAGAAGCGUUCACGUCGCAGCCCCUGUCAGAUUCUGGUGAAUCUGCGAAUUCUGCUGUAUAUCUC

Variants of: B1
Experiment: self-cleavage, relative activity (ratio to wild type); higher = more cleavage; in vitro, sequencing
Method in brief: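 Relative activity was defined as the cleaved/total read fraction for a variant divided by the same fraction for the unmutated ribozyme. CPEB3 self-cleaving ribozyme libraries were made by rounds of error-prone PCR, barcoded, and transcribed in vitro with T7 RNA polymerase for 5 hours at 37°C, and cleavage ran through transcription plus a 15 min DNase I step before EDTA. Illumina sequencing of template-switched reverse transcripts gave the reads, and DNA sequencing mapped the barcodes. Averages come from three batches, using variants with at least 5 reads.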
Variant A35C C81U has a self-cleavage of 0.93.
A35C A57G showed a self-cleavage of 0.93.
Work on A35C A57C yielded a self-cleavage of 0.28.
Variant C34G U58A has a self-cleavage of 0.11.
In the case of C34G U58C, the self-cleavage is reported as 0.15.
For A35G G53A, the self-cleavage was 1.33.
In the case of A35G G53U, the self-cleavage is reported as 1.27.
In the case of C34A U60C, the self-cleavage is reported as 0.14.
C34U A64U showed a self-cleavage of 0.13.
C34U A64G gave a self-cleavage of 0.45.
In the case of A35C U51A, the self-cleavage is reported as 1.
For A35C U51C, the self-cleavage was 0.79.
In the case of C34A A47G, the self-cleavage is reported as 0.31.
In the case of C34U A56U, the self-cleavage is reported as 0.34.
Work on C34U A56G yielded a self-cleavage of 0.48.
Variant A35G U76G has a self-cleavage of 1.49.
With A35G U76C the self-cleavage was 1.29.
For A35G U76A, the self-cleavage was 1.33.
Work on A35G U43G yielded a self-cleavage of 0.36.
Variant A35G U43C has a self-cleavage of 1.22.
A35G U43A showed a self-cleavage of 1.28.
With A35C G55U the self-cleavage was 0.81.
In the case of C34U A45G, the self-cleavage is reported as 0.34.
In the case of C34U A45C, the self-cleavage is reported as 0.17.
In the case of C34G U72C, the self-cleavage is reported as 0.22.
C34G U72A showed a self-cleavage of 0.08.
C34G U72G showed a self-cleavage of 0.15.
C34A U48C showed a self-cleavage of 0.13.
A35C U66A showed a self-cleavage of 0.21.
Variant A35C U66C has a self-cleavage of 0.5.
In the case of C34A A64G, the self-cleavage is reported as 0.14.
Work on A35U C62A yielded a self-cleavage of 0.13.
A35U C62G showed a self-cleavage of 0.28.
A35U C62U gave a self-cleavage of 0.13.
Variant C34U U80G has a self-cleavage of 0.27.
C34U U80A showed a self-cleavage of 0.51.
Variant C34U U80C has a self-cleavage of 0.58.
A35U C68A showed a self-cleavage of 0.11.
A35C A64G showed a self-cleavage of 0.3.
Work on A35C A64U yielded a self-cleavage of 0.25.
For C34U G61U, the self-cleavage was 0.19.
C34G C62G gave a self-cleavage of 0.04.
For C34G U80C, the self-cleavage was 0.24.
A35U C38A showed a self-cleavage of 0.21.
Work on A35U C38U yielded a self-cleavage of 0.47.
A35U G46U showed a self-cleavage of 0.19.
A35U G46A gave a self-cleavage of 0.16.
A35U A77G gave a self-cleavage of 0.57.
In the case of A35U A77U, the self-cleavage is reported as 0.59.
Variant A35G A57G has a self-cleavage of 1.27.
In the case of A35G A57U, the self-cleavage is reported as 1.22.
With A35U A64C the self-cleavage was 0.16.
A35U A64G gave a self-cleavage of 0.39.
A35U A64U gave a self-cleavage of 0.48.
With A35G U54A the self-cleavage was 1.28.
For A35G U54G, the self-cleavage was 1.32.
A35G U54C showed a self-cleavage of 1.29.
A35C U72C showed a self-cleavage of 1.14.
A35C U72G gave a self-cleavage of 0.43.
Work on A35U A45G yielded a self-cleavage of 0.32.
A35U A45U gave a self-cleavage of 0.32.
A35U A45C showed a self-cleavage of 0.18.
A35G C40A showed a self-cleavage of 0.55.
In the case of A35G C40U, the self-cleavage is reported as 1.23.
A35G C40G gave a self-cleavage of 0.66.
With A35G A75G the self-cleavage was 1.31.
Variant A35G A75C has a self-cleavage of 1.25.
A35G A75U gave a self-cleavage of 1.27.
C34A A57G showed a self-cleavage of 0.35.
For A35G U48C, the self-cleavage was 1.21.
In the case of A35G U48A, the self-cleavage is reported as 1.14.
In the case of C34G G42A, the self-cleavage is reported as 0.62.
In the case of C34A A65G, the self-cleavage is reported as 0.26.
For A35C U69C, the self-cleavage was 0.46.
For A35C U69A, the self-cleavage was 0.53.
For A35C U69G, the self-cleavage was 0.62.
With C34G U76G the self-cleavage was 0.32.
C34G U66C gave a self-cleavage of 0.23.
In the case of A35G G42A, the self-cleavage is reported as 0.5.
With A35G G42C the self-cleavage was 0.16.
For C34U U67C, the self-cleavage was 0.12.
For C34U U67A, the self-cleavage was 0.42.
C34U U67G showed a self-cleavage of 0.12.
In the case of C34U U78C, the self-cleavage is reported as 0.3.
A35U G36A gave a self-cleavage of 0.19.
A35U G36U showed a self-cleavage of 0.1.
For C34A U54A, the self-cleavage was 0.17.
A35G G63U showed a self-cleavage of 1.2.
Work on A35G G63A yielded a self-cleavage of 1.29.
For A35G G63C, the self-cleavage was 1.27.
In the case of A35C A75G, the self-cleavage is reported as 0.87.
A35C A75U showed a self-cleavage of 0.97.
A35C U48A gave a self-cleavage of 0.45.
A35C U48C gave a self-cleavage of 0.47.
For A35G U72A, the self-cleavage was 1.22.
In the case of A35G U72G, the self-cleavage is reported as 1.29.
In the case of A35G U72C, the self-cleavage is reported as 1.26.
In the case of A35U C37U, the self-cleavage is reported as 0.28.
Variant A35C U78A has a self-cleavage of 0.74.
With A35C U78C the self-cleavage was 0.73.
Variant A35C U67A has a self-cleavage of 0.23.
A35C U67C gave a self-cleavage of 0.23.
With A35C U67G the self-cleavage was 0.39.
Variant C34U U66C has a self-cleavage of 0.35.
In the case of C34G U41C, the self-cleavage is reported as 0.14.
With C34U G70A the self-cleavage was 0.14.
C34G U78A gave a self-cleavage of 0.26.
C34G U78C gave a self-cleavage of 0.22.
A35U A75C showed a self-cleavage of 0.71.
Variant A35U A75U has a self-cleavage of 0.56.
A35U A75G showed a self-cleavage of 0.58.
Variant C34U U51G has a self-cleavage of 0.54.
C34U U51A showed a self-cleavage of 0.34.
For A35G U74G, the self-cleavage was 1.27.
In the case of A35G U74C, the self-cleavage is reported as 1.29.
In the case of A35G U74A, the self-cleavage is reported as 1.33.
Variant C34U U54A has a self-cleavage of 0.24.
C34U U54C showed a self-cleavage of 0.44.
Work on A35U C44U yielded a self-cleavage of 0.16.
A35U C44A showed a self-cleavage of 0.16.
Work on A35U A56C yielded a self-cleavage of 0.23.
A35U A56U gave a self-cleavage of 0.33.
Work on A35U A56G yielded a self-cleavage of 0.5.
C34U U43A gave a self-cleavage of 0.51.
Work on C34U U43C yielded a self-cleavage of 0.22.
Work on A35G C39U yielded a self-cleavage of 1.21.
A35G C39A gave a self-cleavage of 0.95.
Variant A35G C39G has a self-cleavage of 0.59.
For C34A U66C, the self-cleavage was 0.46.
In the case of A35G U78A, the self-cleavage is reported as 1.35.
Work on A35G U78G yielded a self-cleavage of 1.29.
A35G U78C showed a self-cleavage of 1.3.
In the case of C34U U41C, the self-cleavage is reported as 0.5.
In the case of C34U U41G, the self-cleavage is reported as 0.12.
C34U U41A gave a self-cleavage of 0.4.
C34G U51C gave a self-cleavage of 0.29.
In the case of A35G U49A, the self-cleavage is reported as 1.23.
With A35G U49C the self-cleavage was 1.05.
In the case of C34U G52U, the self-cleavage is reported as 0.33.
With C34G A77C the self-cleavage was 0.08.
C34G U49C showed a self-cleavage of 0.07.
C34G U49A showed a self-cleavage of 0.24.
A35G U66A gave a self-cleavage of 1.34.
A35G U66G showed a self-cleavage of 1.26.
A35G U66C gave a self-cleavage of 1.17.
For A35G C38G, the self-cleavage was 0.96.
Work on A35G C38U yielded a self-cleavage of 1.23.
In the case of A35G C38A, the self-cleavage is reported as 1.21.
Variant C34G C68U has a self-cleavage of 0.15.
C34G C68A showed a self-cleavage of 0.1.
Work on A35C C50A yielded a self-cleavage of 0.92.
In the case of A35C C39A, the self-cleavage is reported as 0.31.
Variant A35U C79U has a self-cleavage of 0.64.
A35C U60C showed a self-cleavage of 0.48.
Work on C34G A75G yielded a self-cleavage of 0.15.
Variant A35C U74C has a self-cleavage of 1.17.
Work on C34A G70C yielded a self-cleavage of 0.17.
A35U A65C gave a self-cleavage of 0.45.
For A35U A65G, the self-cleavage was 0.26.
Work on A35U A65U yielded a self-cleavage of 0.26.
With A35G U67G the self-cleavage was 1.11.
A35G U67A showed a self-cleavage of 1.2.
Work on A35G U67C yielded a self-cleavage of 0.56.
For A35C U76G, the self-cleavage was 0.77.
With A35C U76C the self-cleavage was 0.96.
Work on A35G C81U yielded a self-cleavage of 1.29.
A35G C81A showed a self-cleavage of 1.3.
